The target in one test is T1, TG3 (human, UniProt Q08188).
T1 construct: recombinant, Zedira; also called recombinant human TG3; Epidermal Transglutaminase
T1 sequence (enzyme, looked up): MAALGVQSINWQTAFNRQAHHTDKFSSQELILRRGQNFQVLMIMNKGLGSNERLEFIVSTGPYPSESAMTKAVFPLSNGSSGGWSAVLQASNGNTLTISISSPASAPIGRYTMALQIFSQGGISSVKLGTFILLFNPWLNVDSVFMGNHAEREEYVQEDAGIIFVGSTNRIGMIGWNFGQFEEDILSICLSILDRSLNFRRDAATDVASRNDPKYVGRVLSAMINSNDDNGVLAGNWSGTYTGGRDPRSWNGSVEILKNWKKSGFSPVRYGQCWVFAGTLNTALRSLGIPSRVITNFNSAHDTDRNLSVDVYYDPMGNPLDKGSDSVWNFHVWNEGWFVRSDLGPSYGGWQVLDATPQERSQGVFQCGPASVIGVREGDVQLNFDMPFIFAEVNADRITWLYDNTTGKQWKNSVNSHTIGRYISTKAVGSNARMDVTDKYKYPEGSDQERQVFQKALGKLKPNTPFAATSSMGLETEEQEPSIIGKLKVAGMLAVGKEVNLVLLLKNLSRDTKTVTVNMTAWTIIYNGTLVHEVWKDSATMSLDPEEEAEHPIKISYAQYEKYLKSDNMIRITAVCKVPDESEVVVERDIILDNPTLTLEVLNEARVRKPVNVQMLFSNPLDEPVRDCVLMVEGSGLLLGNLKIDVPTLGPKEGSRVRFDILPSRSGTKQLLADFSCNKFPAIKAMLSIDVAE
Description: ELISA, purified IgG at 0.1 ug/ml, plates coated with 100 ng of each TG [panel B]. As for the experimental part:
(§1) Conditioned medium or purified IgG were tested for reactivity to transglutaminase family members. The ability of each to bind to each transglutaminase (TG1, TG2, TG3, TG5, TG7 and Factor XIIIa; all Zedira) was determined using a plate binding assay. Microtiter plates (Costar, Cambridge, UK) were coated with recombinant TG (Zedira, Darmstadt, Germany) in 50 μl of 0.1 M bicarbonate/carbonate buffer (pH 9.6) overnight at 4° C. Plates were blocked for 2 h at 37° C. with 200 μl PBS containing 3% w/v BSA. Plates were washed three times with PBS containing 0.05% Tween 20 (washing buffer) and 100 μl of diluted conditioned medium (dilution 1:5 to 1:20) or purified anti-TG2 catalytic core mAbs was added. Plates were incubated for a further 1 h at room temperature. The washing step was repeated and anti-mouse gamma chain-horseradish peroxidase (1:5000) in PBS containing 0.05% Tween 20 (v:v) and 1% BSA (w:v) (Sigma, Poole UK) was added for 1 h. […] The reaction was stopped by adding 25 μl of 0.1 M H_2SO_4 and the absorbance at 450 nm was determined.

The next test deals with T2, TG13.
T2 construct: also called Factor XIIIa
T2 chain: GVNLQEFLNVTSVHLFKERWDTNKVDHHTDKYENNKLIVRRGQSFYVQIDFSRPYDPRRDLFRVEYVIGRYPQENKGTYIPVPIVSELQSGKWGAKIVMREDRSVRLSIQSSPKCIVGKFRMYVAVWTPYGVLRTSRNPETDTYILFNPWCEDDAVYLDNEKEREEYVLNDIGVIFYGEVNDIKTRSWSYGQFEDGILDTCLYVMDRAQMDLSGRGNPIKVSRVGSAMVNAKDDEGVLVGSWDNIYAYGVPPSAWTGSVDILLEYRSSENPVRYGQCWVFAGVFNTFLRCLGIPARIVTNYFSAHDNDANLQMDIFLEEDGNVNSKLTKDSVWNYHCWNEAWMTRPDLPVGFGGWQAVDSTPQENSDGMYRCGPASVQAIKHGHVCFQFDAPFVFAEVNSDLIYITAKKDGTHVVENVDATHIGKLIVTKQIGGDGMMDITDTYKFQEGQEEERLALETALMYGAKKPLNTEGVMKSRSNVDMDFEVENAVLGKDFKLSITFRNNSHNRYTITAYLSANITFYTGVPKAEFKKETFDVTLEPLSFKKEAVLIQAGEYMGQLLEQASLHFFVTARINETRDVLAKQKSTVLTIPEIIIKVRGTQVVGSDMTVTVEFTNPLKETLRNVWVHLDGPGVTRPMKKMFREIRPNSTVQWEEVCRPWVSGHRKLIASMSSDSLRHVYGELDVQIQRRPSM
Described as above. As for the experimental part: as §1

B1: DC1 murine monoclonal antibody (antibody, V domains shown)
VH: EVQLVESGGGLVKPGGSLKLSCAASGFTLSTHAMSWVRQTPEKRLEWVATISSGGRSTYYPDSVKGRFTISRDNVKNTLYLQLSSLRSEDTAVYFCARLISTYWGQGTTLTVSS
VL: DITMTQSPSSIYASLGERVTITCKASQDINSYLTWFQQKPGKSPKILIYLVNRLVDGVPSRFSGSGSGQDYALTISSLEYEDMGIYYCLQYDDFPYTFGGGTKLEIK
notes: Mouse hybridoma IgG; heavy chain amplified with primer MHCG1, kappa light chain; also called mDC001
For B1, the binding result with TG3 and with TG13 was “no binding (tested: 0.1 ug/ml)” throughout.

(Values after patent US10005846 (LIFEARC, dated 2018).)
